{
  "source": "patent US20120082661A1",
  "about": "(Biogen, published 2012)",
  "key": {"[1]": {"target": "T1, human BCMA (B cell maturation antigen) (human, UniProt Q02223 1-184)", "T1 chain": "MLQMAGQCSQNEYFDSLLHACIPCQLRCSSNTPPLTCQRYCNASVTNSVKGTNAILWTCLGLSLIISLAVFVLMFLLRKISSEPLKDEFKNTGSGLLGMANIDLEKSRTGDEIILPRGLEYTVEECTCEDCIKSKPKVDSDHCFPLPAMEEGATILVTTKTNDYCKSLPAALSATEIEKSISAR", "test": "cell-based or functional assay"}, "[2]": {"target": "T1, human BCMA (B cell maturation antigen)", "test": "cell-based or functional assay"}},
  "data": [
    {"binder": "chC12A3.2 (antibody, human IgG1, kappa, V domains shown) VH: QIQLVQSGPELKKPGETVKISCKASGYTFRHYSMNWVKQAPGKGLKWMGRINTESGVPIYADDFKGRFAFSVETSASTAYLVINNLKDEDTASYFCSNDYLYSLDFWGQGTTLTVSS VL: DIVLTQSPPSLAMSLGKRATISCRASESVTILGSHLIYWYQQKPGQPPTLLIQLASNVQTGVPARFSGSGSRTDFTLTIDPVEEDDVAVYYCLQSRTIPRTFGGGTKLEIKR", "values": [
      {"measurement": "% Killing at 1 nM (ADCC of JJN-3 cells, PBMC effectors, LDH release)", "setting": "[1]", "result": 5, "unit": "%"},
      {"measurement": "% Killing at 1 nM (ADCC of U266 cells, PBMC effectors, LDH release)", "setting": "[2]", "result": 32, "unit": "%"}
    ]},
    {"binder": "chC11D5.3 (antibody, human IgG1, kappa, V domains shown) VH: QIQLVQSGPELKKPGETVKISCKASGYTFTDYSINWVKRAPGKGLKWMGWINTETREPAYAYDFRGRFAFSLETSASTAYLQINNLKYEDTATYFCALDYSYAMDYWGQGTTLTVSS VL: DIVLTQSPPSLAMSLGKRATISCRASESVTILGSHLIHWYQQKPGQPPTLLIQLASNVQTGVPARFSGSGSRTDFTLTIDPVEEDDVAVYYCLQSRTIPRTFGGGTKLEIKR", "values": [
      {"measurement": "% Killing at 1 nM (ADCC of U266 cells, PBMC effectors, LDH release)", "setting": "[2]", "result": 18, "unit": "%"}
    ]},
    {"binder": "chC13F12.1 (antibody, human IgG1, kappa, V domains shown) VH: QIQLVQSGPELKKPGETVKISCKASGYTFTHYSMNWVKQAPGKGLKWMGRINTETGEPLYADDFKGRFAFSLETSASTAYLVINNLKNEDTATFFCSNDYLYSCDYWGQGTTLTVSS VL: DIVLTQSPPSLAMSLGKRATISCRASESVTILGSHLIYWYQQKPGQPPTLLIQLASNVQTGVPARFSGSGSRTDFTLTIDPVEEDDVAVYYCLQSRTIPRTFGGGTKLEIKR", "values": [
      {"measurement": "% Killing at 1 nM (ADCC of JJN-3 cells, PBMC effectors, LDH release)", "setting": "[1]", "result": 3, "unit": "%"},
      {"measurement": "% Killing at 1 nM (ADCC of U266 cells, PBMC effectors, LDH release)", "setting": "[2]", "result": 20, "unit": "%"}
    ]},
    {"binder": "chA7D12.2 (antibody, human IgG1, kappa, V domains shown) VH: QIQLVQSGPDLKKPGETVKLSCKASGYTFTNFGMNWVKQAPGKGFKWMAWINTYTGESYFADDFKGRFAFSVETSATTAYLQINNLKTEDTATYFCARGEIYYGYDGGFAYWGQGTLVTVSA VL: DVVMTQSHRFMSTSVGDRVSITCRASQDVNTAVSWYQQKPGQSPKLLIFSASYRYTGVPDRFTGSGSGADFTLTISSVQAEDLAVYYCQQHYSTPWTFGGGTKLDIKR", "values": [
      {"measurement": "% Killing at 1 nM (ADCC of JJN-3 cells, PBMC effectors, LDH release)", "setting": "[1]", "result": 20, "unit": "%"},
      {"measurement": "% Killing at 1 nM (ADCC of U266 cells, PBMC effectors, LDH release)", "setting": "[2]", "result": 10, "unit": "%"}
    ]}
  ]
}
